Laboratory results reported in IntAct's records for PubMed 17363896.

B1: Actin cytoskeleton-regulatory complex protein SLA1 (Saccharomyces cerevisiae), P32790 (parent)
chain: MTVFLGIYRAVYAYEPQTPEELAIQEDDLLYLLQKSDIDDWWTVKKRVIGSDSEEPVGLVPSTYIEEAPVLKKVRAIYDYEQVQNADEELTFHENDVFDVFDDKDADWLLVKSTVSNEFGFIPGNYVEPENGSTSKQEQAPAAAEAPAATPAAAPASAAVLPTNFLPPPQHNDRARMMQSKEDQAPDEDEEGPPPAMPARPTATTETTDATAAAVRSRTRLSYSDNDNDDEEDDYYYNSNSNNVGNHEYNTEYHSWNVTEIEGRKKKKAKLSIGNNKINFIPQKGTPHEWSIDKLVSYDNEKKHMFLEFVDPYRSLELHTGNTTTCEEIMNIIGEYKGASRDPGLREVEMASKSKKRGIVQYDFMAESQDELTIKSGDKVYILDDKKSKDWWMCQLVDSGKSGLVPAQFIEPVRDKKHTESTASGIIKSIKKNFTKSPSRSRSRSRSKSNANASWKDDELQNDVVGSAAGKRSRKSSLSSHKKNSSATKDFPNPKKSRLWVDRSGTFKVDAEFIGCAKGKIHLHKANGVKIAVAADKLSNEDLAYVEKITGFSLEKFKANDGSSSRGTDSRDSERERRRRLKEQEEKERDRRLKERELYELKKARELLDEERSRLQEKELPPIKPPRPTSTTSVPNTTSVPPAESSNNNNSSNKYDWFEFFLNCGVDVSNCQRYTINFDREQLTEDMMPDINNSMLRTLGLREGDIVRVMKHLDKKFGRENIASIPTNATGNMFSQPDGSLNVATSPETSLPQQLLPQTTSPAQTAPSTSAETDDAWTVKPASKSESNLLSKKSEFTGSMQDLLDLQPLEPKKAAASTPEPNLKDLEPVKTGGTTVPAAPVSSAPVSSAPAPLDPFKTGGNNILPLSTGFVMMPMITGGDMLPMQRTGGFVVPQTTFGMQSQVTGGILPVQKTGNGLIPISNTGGAMMPQTTFGAAATVLPLQKTGGGLIPIATTGGAQFPQTSFNVQGQQQLPTGSILPVQKTANGLISANTGVSMPTVQRTGGTMIPQTSFGVSQQLTGGAMMTQPQNTGSAMMPQTSFNAVPQITGGAMMPQTSFNALPQVTGGAMMPLQRTGGALNTFNTGGAMIPQTSFSSQAQNTGGFRPQSQFGLTLQKTGGIAPLNQNQFTGGAMNTLSTGGVLQQQQPQTMNTFNTGGVMQELQMMTTFNTGGAMQQPQMMNTFNTDGIMQQPQMMNTFNTGGAMQQPQQQALQNQPTGFGFGNGPQQSRQANIFNATASNPFGF
partner: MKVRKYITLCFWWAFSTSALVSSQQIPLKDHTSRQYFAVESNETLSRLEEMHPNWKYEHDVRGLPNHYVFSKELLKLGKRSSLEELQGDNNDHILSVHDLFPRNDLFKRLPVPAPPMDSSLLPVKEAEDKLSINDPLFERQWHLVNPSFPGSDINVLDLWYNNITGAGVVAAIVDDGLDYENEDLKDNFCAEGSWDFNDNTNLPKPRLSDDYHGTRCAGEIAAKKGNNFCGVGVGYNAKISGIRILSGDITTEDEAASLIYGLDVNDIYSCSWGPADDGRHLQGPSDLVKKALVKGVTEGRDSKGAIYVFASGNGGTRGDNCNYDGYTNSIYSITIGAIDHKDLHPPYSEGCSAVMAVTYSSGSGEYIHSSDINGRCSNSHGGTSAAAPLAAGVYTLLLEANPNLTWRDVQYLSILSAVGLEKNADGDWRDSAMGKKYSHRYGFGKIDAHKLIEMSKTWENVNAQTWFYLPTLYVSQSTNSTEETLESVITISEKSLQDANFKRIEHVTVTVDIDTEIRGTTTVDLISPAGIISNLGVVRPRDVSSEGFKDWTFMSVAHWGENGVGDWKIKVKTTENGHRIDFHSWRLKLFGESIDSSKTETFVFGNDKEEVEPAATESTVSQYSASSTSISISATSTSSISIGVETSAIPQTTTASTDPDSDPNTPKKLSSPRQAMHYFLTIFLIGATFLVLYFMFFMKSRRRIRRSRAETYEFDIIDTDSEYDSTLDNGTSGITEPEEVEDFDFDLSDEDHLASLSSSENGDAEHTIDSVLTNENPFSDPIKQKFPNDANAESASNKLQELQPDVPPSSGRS
B2: Kexin (Saccharomyces cerevisiae), P13134 (parent)
chain: B1 partner
partner: B1 chain

Variants of: B1
Conditions: with kex2_yeast KEX2, P13134

effect of a mutation on the interaction	Variant
disrupting interaction	F507A

Variants of: B1
Conditions: with kex2_yeast KEX2, P13134
Remark: another data set of the same source

effect of a mutation on the interaction	Variant
disrupting interaction	K525A

Variants of: B1
Conditions: with kex2_yeast KEX2, P13134
Remark: another data set of the same source

effect of a mutation on the interaction	Variant
decreasing interaction	K525A

Variants of: B1
Conditions: with kex2_yeast KEX2, P13134
Remark: another data set of the same source

effect of a mutation on the interaction	Variant
disrupting interaction	V529E

Variants of: B1
Conditions: with kex2_yeast KEX2, P13134
Remark: another data set of the same source

effect of a mutation on the interaction	Variant
decreasing interaction	V529E

Variants of: B1
Conditions: with kex2_yeast KEX2, P13134
Remark: another data set of the same source

effect of a mutation on the interaction	Variant
disrupting interaction	I531E

Variants of: B2
Conditions: with sla1_yeast SLA1, P32790

effect of a mutation on the interaction	Variant
disrupting interaction	F779A

Variants of: B2
Conditions: with sla1_yeast SLA1, P32790
Remark: another data set of the same source

effect of a mutation on the interaction	Variant
decreasing interaction	D781A
